Measured values reported in the RNAGym collection of RNA variant scans (doi:10.1093/molbev/msab373).

B1: Azoarcus group I ribozyme (parent)
chain: GUGCCUUGCGCCGGGAAACCACGCAAGGGAUGGUGUCAAAUUCGGCGAAACCUAAGCGCCCGCCCGGGCGUAUGGCAACGCCGAGCCAAGCUUCGGCGCCUGCGCCGAUGAAGGUGUAGAGACUAGACGGCACCCACCUAAGGCAAACGCUAUGGUGAAGGCAUAGUCCAGGGAGUGGCGAAAGUCACACAAACCGG

Variants of: B1
Test: reverse-splicing fitness (ratio to wild type); higher = more active; in vitro selection; Mg2+ level not given
Method in brief: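 An in vitro group I ribozyme library with randomized positions was T7-transcribed and gel-purified. In triplicate, 10 pmol RNA in EPPS pH 7.5 was reacted with 50 pmoles of a 30-nt RNA substrate for 1 h at 37 °C across several added MgCl2 levels (1–48 mM), then stopped with EDTA. Products were reverse transcribed from a substrate-complementary primer, PCR-amplified and sequenced (HiSeq 4000). Fitness is a variant's read proportion after selection over that before, normalised to wild type.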

Row | Variant | reverse-splicing fitness
1 | C82U A111U A120C A145G C150A U176C | 0.0207
2 | C82U A111U A120C A145G C150A U176G | 0.00675
3 | C82U A111U A120C A145G C150G | 0.00928
4 | C82U A111U A120C A145G C150G C169A | 0.00919
5 | C82U A111U A120C A145G C150G C169A U176A | 0.0133
6 | C82U A111U A120C A145G C150G C169A U176C | 0.0137
7 | C82U A111U A120C A145G C150G C169A U176G | 0.00845
8 | C82U A111U A120C A145G C150G C169G | 0.00731
9 | C82U A111U A120C A145G C150G C169G U176A | 0.00984
10 | C82U A111U A120C A145G C150G C169G U176C | 0.0112
11 | C82U A111U A120C A145G C150G C169G U176G | 0.00574
12 | C82U A111U A120C A145G C150G C169U | 0.00911
13 | C82U A111U A120C A145G C150G C169U U176A | 0.0113
14 | C82U A111U A120C A145G C150G C169U U176C | 0.0128
15 | C82U A111U A120C A145G C150G C169U U176G | 0.00719
16 | C82U A111U A120C A145G C150G U176A | 0.00644
17 | C82U A111U A120C A145G C150G U176C | 0.0109
18 | C82U A111U A120C A145G C150G U176G | 0.00575
19 | C82U A111U A120C A145G C150U | 0.0229
20 | C82U A111U A120C A145G C150U C169A | 0.00982
21 | C82U A111U A120C A145G C150U C169A U176A | 0.017

Row | Variant | reverse-splicing fitness
22 | C82U A111U A120C A145G C150U C169A U176C | 0.0136
23 | C82U A111U A120C A145G C150U C169A U176G | 0.00576
24 | C82U A111U A120C A145G C150U C169G | 0.00811
25 | C82U A111U A120C A145G C150U C169G U176A | 0.0128
26 | C82U A111U A120C A145G C150U C169G U176C | 0.016
27 | C82U A111U A120C A145G C150U C169G U176G | 0.00514
28 | C82U A111U A120C A145G C150U C169U | 0.0108
29 | C82U A111U A120C A145G C150U C169U U176A | 0.0159
30 | C82U A111U A120C A145G C150U C169U U176C | 0.0155
31 | C82U A111U A120C A145G C150U C169U U176G | 0.00474
32 | C82U A111U A120C A145G C150U U176A | 0.0116
33 | C82U A111U A120C A145G C150U U176C | 0.0214
34 | C82U A111U A120C A145G C150U U176G | 0.00597
35 | C82U A111U A120C A145G C169A | 0.0083
36 | C82U A111U A120C A145G C169A U176A | 0.0202
37 | C82U A111U A120C A145G C169A U176C | 0.0232
38 | C82U A111U A120C A145G C169A U176G | 0.00456
39 | C82U A111U A120C A145G C169G | 0.00779
40 | C82U A111U A120C A145G C169G U176A | 0.0152
41 | C82U A111U A120C A145G C169G U176C | 0.0209
42 | C82U A111U A120C A145G C169G U176G | 0.00473

Row | Variant | reverse-splicing fitness
43 | C82U A111U A120C A145G C169U | 0.0112
44 | C82U A111U A120C A145G C169U U176A | 0.0163
45 | C82U A111U A120C A145G C169U U176C | 0.0162
46 | C82U A111U A120C A145G C169U U176G | 0.00475
47 | C82U A111U A120C A145G U176A | 0.0152
48 | C82U A111U A120C A145G U176C | 0.0219
49 | C82U A111U A120C A145G U176G | 0.00517
50 | C82U A111U A120C A145U | 0.0286
51 | C82U A111U A120C A145U C150A | 0.00878
52 | C82U A111U A120C A145U C150A C169A | 0.00772
53 | C82U A111U A120C A145U C150A C169A U176A | 0.0106
54 | C82U A111U A120C A145U C150A C169A U176C | 0.0094
55 | C82U A111U A120C A145U C150A C169A U176G | 0.00478
56 | C82U A111U A120C A145U C150A C169G | 0.00687
57 | C82U A111U A120C A145U C150A C169G U176A | 0.0124
58 | C82U A111U A120C A145U C150A C169G U176C | 0.0124
59 | C82U A111U A120C A145U C150A C169G U176G | 0.00527
60 | C82U A111U A120C A145U C150A C169U | 0.00908
61 | C82U A111U A120C A145U C150A C169U U176A | 0.0145
62 | C82U A111U A120C A145U C150A C169U U176C | 0.0156
63 | C82U A111U A120C A145U C150A C169U U176G | 0.00498

Row | Variant | reverse-splicing fitness
64 | C82U A111U A120C A145U C150A U176A | 0.0115
65 | C82U A111U A120C A145U C150A U176C | 0.00963
66 | C82U A111U A120C A145U C150A U176G | 0.0048
67 | C82U A111U A120C A145U C150G | 0.0076
68 | C82U A111U A120C A145U C150G C169A | 0.00868
69 | C82U A111U A120C A145U C150G C169A U176A | 0.00915
70 | C82U A111U A120C A145U C150G C169A U176C | 0.00923
71 | C82U A111U A120C A145U C150G C169A U176G | 0.0051
72 | C82U A111U A120C A145U C150G C169G | 0.00651
73 | C82U A111U A120C A145U C150G C169G U176A | 0.00657
74 | C82U A111U A120C A145U C150G C169G U176C | 0.0054
75 | C82U A111U A120C A145U C150G C169G U176G | 0.0048
76 | C82U A111U A120C A145U C150G C169U | 0.00819
77 | C82U A111U A120C A145U C150G C169U U176A | 0.00894
78 | C82U A111U A120C A145U C150G C169U U176C | 0.0122
79 | C82U A111U A120C A145U C150G C169U U176G | 0.00523
80 | C82U A111U A120C A145U C150G U176A | 0.00587
81 | C82U A111U A120C A145U C150G U176C | 0.00709
82 | C82U A111U A120C A145U C150G U176G | 0.00331
83 | C82U A111U A120C A145U C150U | 0.0196
84 | C82U A111U A120C A145U C150U C169A | 0.00828
